# Literature values as cited in paper PMC8112298.
# Target: protein Z (Homo sapiens) (UniProt P22891)
# Sequence of UniProt P22891 (P22891 41-400): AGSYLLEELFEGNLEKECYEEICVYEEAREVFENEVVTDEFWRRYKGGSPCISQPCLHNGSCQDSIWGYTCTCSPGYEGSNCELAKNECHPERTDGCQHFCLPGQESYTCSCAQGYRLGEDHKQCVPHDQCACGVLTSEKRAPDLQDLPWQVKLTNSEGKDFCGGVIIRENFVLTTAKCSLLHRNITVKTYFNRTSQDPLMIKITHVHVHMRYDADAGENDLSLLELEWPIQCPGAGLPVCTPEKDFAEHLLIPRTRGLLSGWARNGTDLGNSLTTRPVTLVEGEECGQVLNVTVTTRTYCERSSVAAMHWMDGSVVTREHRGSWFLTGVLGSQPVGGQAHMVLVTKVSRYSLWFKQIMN
substance,measurement,value
ZPI (from UniProt Q9UK55),Kd,0.01 µM
